Results on 1 protein are retold here after FireProtDB (doi:10.1021/bi0015717).

Broadly, the Tm is the temperature at the midpoint of the melting transition.

The conditions of this data set: Homo sapiens; pH 2.7; Thermal; DSC; glycine-HCl 0.05 M; reversible: yes; whole UniProt chain shown.

B1: Lysozyme C wild type, P61626 (protein)
chain: MKALIVLGLVLLSVTVQGKVFERCELARTLKRLGMDGYRGISLANWMCLAKWESGYNTRATNYNAGDRSTDYGIFQINSRYWCNDGKTPGAVNACHLSCSALLQDNIADAVACAKRVVRDPQGIRAWVAWRNRCQNRDVRQYVQGCGV
Regarding B1, the Tm came out at 64.9 °C, the “heat capacity change of unfolding” value was found to be 1.58 kcal/mol/K and the “unfolding enthalpy (calorimetric)” value was found to be 114 kcal/mol.
